The source of these data is publication PMC11868491.

Series [1] addresses T1, His6-Crz1(N339-S678) (Saccharomyces cerevisiae BY4743, UniProt P53968 339-678). The series can be described thus: EMSA. For orientation: In EMSA bound probe runs differently from free probe, usually more slowly.
Series [2] addresses T1, His6-Crz1(N339-S678). The series is described as follows: competition.

T1 sequence (P53968 339-678): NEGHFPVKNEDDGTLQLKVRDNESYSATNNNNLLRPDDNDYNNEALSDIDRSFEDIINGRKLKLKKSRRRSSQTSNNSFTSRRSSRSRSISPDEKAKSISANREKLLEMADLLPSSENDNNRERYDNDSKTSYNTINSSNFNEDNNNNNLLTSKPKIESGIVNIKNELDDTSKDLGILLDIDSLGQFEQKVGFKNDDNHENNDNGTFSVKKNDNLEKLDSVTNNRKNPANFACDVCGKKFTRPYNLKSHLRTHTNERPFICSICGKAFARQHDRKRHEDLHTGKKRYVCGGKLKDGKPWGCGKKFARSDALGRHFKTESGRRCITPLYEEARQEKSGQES

B1: EMSA_probe-Crz1/CMK2-F/R (DIG-labeled) (dsDNA)
DNA 1: AACGCAGCGCGAAGAGAATAATTGAGGCTTATCTTAGAACCCTGCCCCC
DNA 2: GGGGGCAGGGTTCTAAGATAAGCCTCAATTATTCTCTTCGCGCTGCGTT
Consider B1, for which the binding result with His6-Crz1(N339-S678) [1] is reported as “binds”.

B2: EMSA_probe-Crz1/CMK2-F/R (unlabeled competitor) (dsDNA)
DNA 1: AACGCAGCGCGAAGAGAATAATTGAGGCTTATCTTAGAACCCTGCCCCC
DNA 2: GGGGGCAGGGTTCTAAGATAAGCCTCAATTATTCTCTTCGCGCTGCGTT
With B2, the binding result in the series with His6-Crz1(N339-S678) [2] is “binds”.
